Two molecules from patent publication US11795454B2, “Targeted delivery system” (Cedars-Sinai Medical Center, priority 2009, dated 2023) can be followed below.

“Also recorded” adds a separate entry of the source. Like-named read-outs stand apart in the source and are kept apart here.

For series [1] the following is noted: mouse, in vivo.
Text: (§4) Histology of myocardia from treated mice. Micrographs show representative H&E stained specimens from treated mice.
(§5) Female immunodeficient (nu/nu) mice (6-8 weeks; Charles River Laboratories International, Wilmington, MA, USA) received subcutaneous bilateral flank injections of 1×10^7 indicated cells and monitored until tumors reached ˜200-300 mm3, at which point the following treatments were initiated. […] To assess therapeutic efficacy, a new group of tumor-bearing mice received daily i.v. (tail vein) injections of HerDox or Dox at indicated doses for 7 days followed by continued monitoring of tumor volumes (assessed by measuring tumor length and width using calipers, and applying LxW2), animal weights, and heart function. […] Cardiac function in anesthetized mice was evaluated by a Vevo 770 High-Frequency Ultrasound system (VisualSonics, Toronto, Canada). Heart rate and body temperature were monitored. Superficial hair was removed from the region of interest with a depilatory cream (Nair) before imaging. The 2-dimensional guided M-mode images of the left ventricle were obtained in the short-axis view at the papillary level with the mouse in the supine position. All primary measurements were traced manually and digitized by goal-directed software installed within the echocardiograph. Three beats were averaged for each measurement. All measurements were done from leading edge to leading edge according to the American Society of Echocardiography guidelines. At animal study completion, tissue harvested from euthanized mice were fixed in 4% paraformaldehyde/PBS at 4° C. for 24 h followed by transfer into 20% sucrose/PBS and storage at −80° C. before immunohistochemical processing. Specimens and hematoxylin/eosin staining were prepared by AML Laboratories, Inc., Baltimore, MD, USA.
The subject of series [2] is MDA-MB-231 (HER2−) cells. The series is described as follows: HerDox targeted toxicity in vitro, separate cultures. Conditions: MDA-MB-231, day 3. The class given is cell-based, human. How it is done: (§1) All treatments, N=3. FIG. 27A. Comparing cytotoxicity to HER2+ (MDAMB-435) and HER2− (MDA-MB-231) cells in separate cultures. Left, Relative survival (as % of untreated cells) on day 3 of treatment. Right, Micrograph of live cells after treatment. Control, mock (HBS) treatment. FIG. 27B, Receptor specificity of cytotoxicity. […] FIG. 27C, Toxicity to cells displaying differential HER2. Cytotoxicities from HerDox titrations were assessed on each cell line by metabolic assay and confirmed by crystal violet stain on day 3 of treatment. CD50 values (shown in log scale) were determined by non-linear regression analyses of HerDox killing curves using GraphPad Prism. The relative HER2 level of each cell line is shown next to each CD50 value. FIG. 27D, Targeting in a mixed MDA-MB-435(HER2+,GFP−)/MDA-MB-231(HER2−,GFP+) cell culture. Survival was determined by calculating the relative doubling time (DT) of experimental (exp) cells normalized by mock-treated (con) cells based on crystal violet stains (total cells) and GFP fluorescence (MDAMB-231 cells), and applying DTMDA-MB-435=DTTotal-DTMDA-MB-231 as previously described. Relative survival is shown for Day 2 of treatment. FIG. 27E, Targeted glioma cell death in vitro. U251 cells were treated once with the indicated HerDox (and competitive inhibitor where indicated) or Dox doses and measured for cell survival at the indicated time points after treatment. * P<0.05 compared to Mock.
For all in vitro treatments, cell lines were grown for ˜36 h after plating (104/well in 96-well dishes) to allow receptor re-expression, followed by media replacement with new media containing indicated constructs in reduced volume at the indicated final molarities for 4 h with rocking, followed by supplementation with additional media and continued growth for the indicated time periods. Except for the experiments performed on the U251 glioma cells (which received a one-time treatment), cells received these treatments daily while separate sets of wells were assessed for cell death by either metabolic assay (CellTiter Promega Corporation, Madison, WI, USA) or crystal violet stain each day. Where indicated, cells received competitive inhibitor (eHRG) at 10× molar excess for 30 min-1 h at 4° C. before treatment. Treatment of mixed (HER2+/HER2−) cell cultures with HerDox or Dox (0.5 uM), and cell surface receptor subunit level determination were performed as previously described.

A short description of series [3]: TUNEL staining of liver and kidney tissue of treated mice. Conditions: mouse, in vivo.
Text: Control (saline-injected) mice were euthanized early due to tumor ulceration, in compliance with IACUC policy. […] FIG. 30E, TUNEL staining and quantification in liver and kidney tissue obtained from treated mice. Micrographs obtained at 20× magnification (left set of panels) show fluorescently-stained nuclei in apoptotic cells (delineated areas are enlarged in micrographs to the right). Graph summarizes relative fluorescence intensities of each treated tissue (N>200 fields per treatment).
Fixed, sectioned tissues were processed by incubation in a dry 60° C. oven for 1 h followed by sequential submersion in xylenes for 4 min×5, then hydration in 100%, 95%, 90%, 80%, 70% ethanol for 3 min, 2 times each and final submersion in water. After Proteinase K (20 ug/ml in 10 mM Tris pH 7.8) incubation and rinsing in PBS, sections were treated for TUNEL staining following the manufacturer's instructions (XXX) and assessed by confocal fluorescence imaging. Here, 10 TUNEL images at different locations per tissue were acquired using a Leica confocal SPE microscope (20×, ex: 488 nm, and em: 530 nm). Central regions of each tissue were imaged to avoid fixation artifacts. Nuclear fluorescence intensities, reflective of DNA fragmentation, were measured and averaged using ImageJ.
Series [4] can be described thus: Cardiac function (echocardiography) and myocardial histology of treated mice.
Text: as §4, §5
Series [5] is described as follows: CryoEM of HerDox particles. The class given is physicochemical. Conditions: mostly round particles.
Experimental: Sample preparation and imaging was performed by NanoImaging Services, Inc., La Jolla, CA, USA.
CryoEM was performed by NanoImaging Services, Inc. (La Jolla, CA, USA) implementing the following procedures (provided by NanoImaging Services, Inc.): Samples were preserved in vitrified ice supported by carbon coated holey carbon films on 400 mesh copper grids. All samples were prepared by applying a 3 μL drop of undiluted sample suspension to a cleaned grid, blotting away with filter paper and immediately proceeding with vitrification in liquid ethane. Grids were stored under liquid Nitrogen until transferred to the electron microscope for imaging. All grids were prepared the day the sample was delivered (complexes were assembled immediately before delivery). Electron microscopy was performed using an FEI Tecnai T12 electron microscope, operating at 120 KeV equipped with an FEI Eagle 4K×4K CCD camera. Vitreous ice grids were transferred into the electron microscope using a stage that maintains the grids at below −170 C. Images of the grid were acquired at multiple scales to assess the overall distribution of the specimen. After identifying potentially suitable target areas for imaging at lower magnifications, higher magnification images were acquired at nominal magnifications of 52,000× (0.21 nm/pixel) and 21,000× (0.50 nm/pixel). […]
Series [6] deals with MDA-MB-231. Briefly: HerDox cytotoxicity dose curves (metabolic assay, crystal violet). Conditions: MDA-MB-231, low HER2; day 3; read-out: CD50 (the source's name). The class given is cell-based, human. How it is done: (§2) FIG. 21 depicts, in accordance with an embodiment herein, toxicity to cells displaying differential HER2. Cytotoxicities from a range of HerDox doses were assessed on each cell line by metabolic assay and confirmed by crystal violet stain. CD50 values (shown in log scale) were determined by non-linear regression analyses of HerDox dose curves using a scientific graphing program (GraphPad Prism) and confirmed with an on-line calculator (Chang bioscience). The relative HER2 level of each cell line is shown next to each CD50 value.
as §1, with “FIG. 27D, Targeting in a mixed MDA-MB-435(HER2+,GFP−)/MDA-MB-231(HER2−,GFP+) cell culture.” left out, “Relative survival is shown for Day 2 of treatment. FIG. 27E, Targeted glioma cell death in vitro.” left out, “Mock. […]” for “Mock.”
(§3) To assess the contribution of HER2 to therapeutic efficacy in vitro, we determined HerDox CD50 on selected human tumor lines displaying HER2 at relatively high (SKBR3), moderate (MDA-MB-435, MDAMB-453, HeLa), and low to undetectable (MDA-MB-231) levels, according to our receptor subunit profiling of a cell line panel.

The test system of series [7] is MDA-MB-435, MDAMB-453, HeLa. Described as above. Conditions: intermediate HER2 levels; day 3; read-out: CD50 (the source's name). The class given is cell-based, human. Here is the method: as §2
as §1, with “FIG. 27D, Targeting in a mixed MDA-MB-435(HER2+,GFP−)/MDA-MB-231(HER2−,GFP+) cell culture.” left out, “Relative survival is shown for Day 2 of treatment. FIG. 27E, Targeted glioma cell death in vitro.” left out, “Mock. […]” for “Mock.”
as §3

The test system of series [8] is SKBR3. The description is as above. The class given is cell-based, human. Conditions: SKBR3, high HER2; day 3; read-out: CD50 (the source's name). How it is done: as §2
as §1, with “FIG. 27D, Targeting in a mixed MDA-MB-435(HER2+,GFP−)/MDA-MB-231(HER2−,GFP+) cell culture.” left out, “Relative survival is shown for Day 2 of treatment. FIG. 27E, Targeted glioma cell death in vitro.” left out, “Mock. […]” for “Mock.”
as §3

Turning to `COc1cccc2c1C(=O)c1c(O)c3c(c(O)c1C2=O)C[C@@](O)(C(=O)CO)C[C@@H]3O[C@H]1C[C@H](N)[C@H](O)[C@H](C)O1.Cl` [Dox, Doxorubicin-HCl, reference compound], in series [1], the myocardial histology entry is reported as “myofibrillar degeneration”. In series [1] (0.004 mg/kg), the “stroke volume, cardiac output, left ventricular internal dimension and volume” value was “modest to marked reductions”. Moreover, the toxicity / survival result in series [2] is “no preference”.

B1: HerDox: self-assembled nanoparticle of oligonucleotide duplex, doxorubicin and HerPBK10 (conjugate)
chain: LPPRLKEMKSQESAAGSKLVLRCETSSEYSSLRFKWFKNGNELNRKNKPQNIKIQKKPGKSELRINKASLADSGEYMCKVISKLGNDSASANITIVESNEIITGMPASTEGAYVSSESPIRISVSTEGANTSSSTSTSTTGTSHLVKCAEKEKTFCVNGGECFMVKDLSNPSRYLCKCQPGFTGARCTENVPMKVQNQEKAEELYMRRAAMYEEGPPPSYESVVSAAPVAAALGSPFDAPLDPPFVPPRYLRPTGGRNSIRYSELAPLFDTTRVYLVDNKSTDVASLNYQNDHSNFLTTVIQNNDYSPGEASTQTINLDDRSHWGGDLKTILHTNMPNVNEFMFTNKFKARVMVSRLPTKDNQVELKYEWVEFTLPEGNYSETMTIDLMNNAIVEHYLKVGRQNGVLESDIGVKFDTRNFRLGFDPVTGLVMPGVYTNEAFHPDIILLPGCGVDFTHSRLSNLLGIRKRQPFQEGFRITYDDLEGGNIPALLDVDAYQASLKDDTEQGGGGAGGSNSSGSGAEENSNAAAAAMQPVEDMNDHAIRGDTFATRAEEKRAEAEAAAEAAAPAAQPEVEKPQKKPVIKPLTEDSKKRSYNLISNDSTFTQYRSWYLAYNYGDPQTGIRSWTLLCTPDVTCGSEQVYWSLPDMMQDPVTFRSTRQISNFPVVGAELLPVHSKSFYNDQAVYSQLIRQFTSLTHVFNRFPENQILARPPAPTITTVSENVPALTDHGTLPLRNSIGGVQRVTITDARRRTCPYVYKALGIVSPRVLSSRTFKKKKKKKKKK
Consider B1, for which the “apoptosis in the kidney (TUNEL)” value in series [3] is listed as “Neither Dox nor HerDox showed substantial apoptosis”. The “apoptosis in the liver (TUNEL)” value in series [3] is on record as “did not; also recorded: negligible apoptosis”. Moreover, in series [4] (H&E), the myocardial histology result is “normal cardiac morphology”. Also, the “stroke volume, cardiac output, left ventricular internal dimension and volume” value in series [4] (echocardiography 25 days following injections, 0.004 mg/kg) is given as “no effect on these measurements; also recorded: no cardiac dysfunction or histological damage”. Further, the particle diameter in series [5] is ~10 nm. The figures for the IC50 in series [6], in series [7] and in series [8] were > 8 µM, 300 to 800 nM and 56 ± 17 nM, respectively.
